In publication PMC10998830:
Where “and” joins values, the source holds several entries; their conditions need not be identical. Identical values can stand only once.

Legend:
[1] = substrate: O=P(O)(O)OC[C@H]1O[C@H](OP(=O)(O)OP(=O)(O)O)[C@H](O)[C@@H]1O; experiment: purified protein, by the assay type; details: 25.0 °C
Method: To assess the effect of increased AbHisGS mass in catalysis, we purified AbHisGS from heterologous expression in M9 medium supplemented with different isotopes to produce AbHisGS carrying natural isotope abundance (unlabelled AbHisGS), [^15N]AbHisGS, [^13C,^15N]AbHisGS, and [^2H,^13C,^15N]AbHisGS (the ^2H is incorporated in non-exchangeable positions) (Supplementary Fig. 1). […] AbATPPRT substrate saturation curves at 25 °C using unlabelled AbHisGS produced from heterologous expression in LB medium by our published protocol[30] and unlabelled AbHisGS generated here from expression in M9 medium and in M9 with high cell density induction[47] […] S5 Supplementary Figure 4 Substrate saturation curves for unlabelled AbATPPRT with AbHisGS purified from cultures grown in M9 and M9 with high cell density compared with previously published data (reproduced here) for unlabelled AbATPPRT with AbHisGS purified from cultures grown in LB. For the M9 and M9 high cell density curves, all data points are shown for two independent measurements, except for the previously published LB curves, where data are the mean of two independent measurements. […] Kinetics and thermal denaturation data were analysed by the nonlinear regression function of SigmaPlot 14.0 (SPSS Inc.). […] The concentration of ATPPRT at any concentration of AbHisGS and AbHisZ was calculated according to Eq. (4). […]

[2] = substrate: O=P(O)(O)OC[C@H]1O[C@H](OP(=O)(O)OP(=O)(O)O)[C@H](O)[C@@H]1O; experiment: purified protein, by the assay type; details: 25.0 °C; remark: listed apart in the source
Method: (§1) Kinetics and thermal denaturation data were analysed by the nonlinear regression function of SigmaPlot 14.0 (SPSS Inc.). Thermal denaturation data were fitted to Eq. (1). Substrate saturation curves at a fixed concentration of the co-substrate were fitted to Eq. (2). Initial rate data at varying concentrations of HisZ were fitted to Eq. (3). The concentration of ATPPRT at any concentration of AbHisGS and AbHisZ was calculated according to Eq. (4). Histidine dose-response data were fitted to Eq. (5). Single-turnover data with WT-AbATPPRT isotopologues were fitted to Eq. (6). Plots of kcat ratios against relative viscosity were fitted to Eq. (7). Temperature-rate profile for AbHisGS was fitted to Eq. (8). Single-turnover data with R70A-AbATPPRT isotopologues were fitted to Eq. (9). In Eqs. […] While kcats for [^13C,^15N]AbHisGS and [^2H,^13C,^15N]AbHisGS are marginally lower than for unlabelled AbHisGS and [^15N]AbHisGS, the overlapping nature of most data points in Fig. 1c disagrees with distinguishable heavy-enzyme kinetic isotope effects on kcat (^HEkcat). […] This was further probed by pre-steady-state kinetics under multiple-turnover conditions. The AbHisGS reaction had been shown not to have a burst of product formation, which is reproduced here for unlabelled AbHisGS, whose traces overlap with those for [^2H,^13C,^15N]AbHisGS (Supplementary Fig. 5). […]

purified protein = substrate: Nc1ncnc2c1ncn2[C@@H]1O[C@H](COP(=O)(O)OP(=O)(O)O)[C@@H](O)[C@H]1O; experiment: purified protein; assay type: biochemical, Acinetobacter baumannii; details: 25 °C, pH 8.5, 1.6 mM PRPP, 15 mM MgCl2, 100 mM KCl, unlabelled enzyme
[3] = substrate: Nc1ncnc2c1ncn2[C@@H]1O[C@H](COP(=O)(O)OP(=O)(O)OP(=O)(O)O)[C@@H](O)[C@H]1O; experiment: purified protein, by the assay type; details: 25.0 °C
Method: as §1

[4] = substrate: O=P(O)(O)OC[C@H]1O[C@H](OP(=O)(O)OP(=O)(O)O)[C@H](O)[C@@H]1O; experiment: purified protein, by the assay type; details: 25.0 °C; remark: listed apart in the source
Method: (§2) Kinetics and thermal denaturation data were analysed by the nonlinear regression function of SigmaPlot 14.0 (SPSS Inc.). Thermal denaturation data were fitted to Eq. (1). Substrate saturation curves at a fixed concentration of the co-substrate were fitted to Eq. (2). Initial rate data at varying concentrations of HisZ were fitted to Eq. (3). The concentration of ATPPRT at any concentration of AbHisGS and AbHisZ was calculated according to Eq. (4). Histidine dose-response data were fitted to Eq. (5). Single-turnover data with WT-AbATPPRT isotopologues were fitted to Eq. (6). Plots of kcat ratios against relative viscosity were fitted to Eq. (7). Temperature-rate profile for AbHisGS was fitted to Eq. (8). Single-turnover data with R70A-AbATPPRT isotopologues were fitted to Eq. (9). In Eqs. […] While kcats for [^13C,^15N]AbHisGS and [^2H,^13C,^15N]AbHisGS are marginally lower than for unlabelled AbHisGS and [^15N]AbHisGS, the overlapping nature of most data points in Fig. 1c disagrees with distinguishable heavy-enzyme kinetic isotope effects on kcat (^HEkcat). […] This was further probed by pre-steady-state kinetics under multiple-turnover conditions. The AbHisGS reaction had been shown not to have a burst of product formation, which is reproduced here for unlabelled AbHisGS, whose traces overlap with those for [^2H,^13C,^15N]AbHisGS (Supplementary Fig. 5). S5 Supplementary Figure 4 Substrate saturation curves for unlabelled AbATPPRT with AbHisGS purified from cultures grown in M9 and M9 with high cell density compared with previously published data (reproduced here) for unlabelled AbATPPRT with AbHisGS purified from cultures grown in LB. For the M9 and M9 high cell density curves, all data points are shown for two independent measurements, except for the previously published LB curves, where data are the mean of two independent measurements. Lines are best fit of the data to equation (2): solid line for M9 high cell density curves, long-dashed line for M9 curves, and short-dashed line for previously published LB curves. […]

[5] = substrate: Nc1ncnc2c1ncn2[C@@H]1O[C@H](COP(=O)(O)OP(=O)(O)O)[C@@H](O)[C@H]1O; experiment: purified protein, by the assay type; details: 25.0 °C
Method: as §2

[6] = substrate: Nc1ncnc2c1ncn2[C@@H]1O[C@H](COP(=O)(O)OP(=O)(O)OP(=O)(O)O)[C@@H](O)[C@H]1O; experiment: purified protein, by the assay type; details: 25.0 °C; remark: listed apart in the source
Method: as §2

B1: AbATPPRT (Acinetobacter baumannii ACICU) (protein)
chain: MNDVRNDDPNFNVMGNFDHGLTLALSKGRILKETLPLLATAGINLLEDPEKSRKLIFPTTHKQVRILILRASDVPTYVENGAADLGVAGKDVLMEHGAQHVYELLDLQIAKCKLMTAGKVGMERPKGRLKIATKYVNLTRQYYASLGEQVDVIKLYGSMELAPLVGLGDYIVDVVDTGNTLRANGLEPLEEICKVSSRLIVNKASFKRKQVLLNPIISQLEQAVQSR
notes: hetero-octameric holoenzyme (two HisGS dimers flanking a HisZ tetramer) reconstituted in vitro from separately purified recombinant AbHisGS (E. coli BL21(DE3)) and AbHisZ; unlabelled (natural isotope abundance)
[1]
  Km: 96 µM
  kcat: 16.6 ± 0.4 s⁻¹
[2]
  Km: 80 µM and 85 µM
Purified protein
  Km: 350 ± 40 µM
  kcat: 16.6 ± 0.4 s⁻¹
[3]
  Km: 170 ± 30 µM and 210 ± 30 µM
[4]
  Km: 120 ± 10 µM
[5]
  Km: 300 µM and 280 µM
[6]
  Km: 130 ± 20 µM
